T1: CEACAM6 overexpressed on HEK293T cells (human, UniProt P40199 35-320)
T1 construct: also called CEACAM6 expressing HEK293T cells
T1 sequence: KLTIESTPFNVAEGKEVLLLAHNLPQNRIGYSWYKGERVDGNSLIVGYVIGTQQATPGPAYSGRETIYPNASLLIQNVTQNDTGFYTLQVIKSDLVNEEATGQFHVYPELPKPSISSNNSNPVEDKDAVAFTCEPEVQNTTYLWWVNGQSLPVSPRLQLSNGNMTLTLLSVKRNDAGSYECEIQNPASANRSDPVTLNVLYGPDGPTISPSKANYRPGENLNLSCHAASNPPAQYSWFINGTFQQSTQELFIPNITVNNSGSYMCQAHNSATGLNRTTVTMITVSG

T2: full length CEACAM1 overexpressed on HEK293T cells (human, UniProt P13688 35-526)
T2 construct: also called CEACAM-1 expressing HEK293T cells
T2 sequence: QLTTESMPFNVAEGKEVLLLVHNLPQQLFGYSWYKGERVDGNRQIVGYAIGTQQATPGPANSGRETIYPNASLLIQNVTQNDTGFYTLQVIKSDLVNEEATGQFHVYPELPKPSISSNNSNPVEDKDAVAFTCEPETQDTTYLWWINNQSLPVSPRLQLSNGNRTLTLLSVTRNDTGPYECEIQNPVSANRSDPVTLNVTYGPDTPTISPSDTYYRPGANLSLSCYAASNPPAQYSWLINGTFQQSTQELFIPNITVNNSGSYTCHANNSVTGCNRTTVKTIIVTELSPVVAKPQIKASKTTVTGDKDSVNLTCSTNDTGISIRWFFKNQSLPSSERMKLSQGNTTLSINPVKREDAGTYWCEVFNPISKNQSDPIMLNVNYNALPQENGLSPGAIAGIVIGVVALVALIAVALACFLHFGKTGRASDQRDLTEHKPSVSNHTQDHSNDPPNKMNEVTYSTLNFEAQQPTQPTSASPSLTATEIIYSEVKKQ

T3: CEACAM5 overexpressed on HEK293T cells (human, UniProt P06731 35-685)
T3 construct: also called CEACAM5 expressing HEK293T cells
T3 sequence: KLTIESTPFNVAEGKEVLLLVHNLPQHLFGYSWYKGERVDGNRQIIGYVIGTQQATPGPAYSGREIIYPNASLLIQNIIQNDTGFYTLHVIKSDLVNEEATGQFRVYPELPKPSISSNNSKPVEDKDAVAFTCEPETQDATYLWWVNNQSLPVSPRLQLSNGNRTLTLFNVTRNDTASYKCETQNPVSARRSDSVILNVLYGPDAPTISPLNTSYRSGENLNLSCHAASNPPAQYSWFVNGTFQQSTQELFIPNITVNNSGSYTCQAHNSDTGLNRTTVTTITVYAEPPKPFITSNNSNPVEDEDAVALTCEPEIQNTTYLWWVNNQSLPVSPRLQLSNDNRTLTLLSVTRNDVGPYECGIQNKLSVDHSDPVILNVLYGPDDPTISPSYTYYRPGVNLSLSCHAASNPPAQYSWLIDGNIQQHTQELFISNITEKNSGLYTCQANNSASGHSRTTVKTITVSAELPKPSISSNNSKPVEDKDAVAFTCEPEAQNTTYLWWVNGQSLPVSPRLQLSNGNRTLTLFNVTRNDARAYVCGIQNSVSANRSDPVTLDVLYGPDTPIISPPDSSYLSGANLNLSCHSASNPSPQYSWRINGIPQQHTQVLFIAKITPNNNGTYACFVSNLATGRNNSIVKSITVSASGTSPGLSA

T4: recombinant CEACAM5 (R&D Systems #4128-CM) (human, UniProt P06731 35-685)
T4 construct: Bought protein
T4 sequence: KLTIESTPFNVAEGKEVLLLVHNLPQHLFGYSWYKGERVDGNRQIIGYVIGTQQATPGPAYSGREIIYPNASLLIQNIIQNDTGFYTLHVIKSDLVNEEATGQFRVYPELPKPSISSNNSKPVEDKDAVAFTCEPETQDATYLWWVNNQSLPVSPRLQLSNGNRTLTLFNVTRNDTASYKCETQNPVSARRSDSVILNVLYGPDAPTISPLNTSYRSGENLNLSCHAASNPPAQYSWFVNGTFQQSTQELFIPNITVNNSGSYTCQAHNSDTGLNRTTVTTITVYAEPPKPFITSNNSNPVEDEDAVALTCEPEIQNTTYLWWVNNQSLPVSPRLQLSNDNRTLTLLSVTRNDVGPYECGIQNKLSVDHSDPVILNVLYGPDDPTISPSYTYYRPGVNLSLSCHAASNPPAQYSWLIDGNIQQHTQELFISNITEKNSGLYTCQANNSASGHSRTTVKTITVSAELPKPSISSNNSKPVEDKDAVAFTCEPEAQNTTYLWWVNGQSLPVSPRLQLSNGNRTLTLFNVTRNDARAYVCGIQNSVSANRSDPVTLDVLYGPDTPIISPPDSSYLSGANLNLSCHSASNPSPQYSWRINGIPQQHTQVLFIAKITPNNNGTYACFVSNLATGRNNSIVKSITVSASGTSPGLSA

T5: recombinant CEACAM6 (R&D Systems #3934-CM) (human, UniProt P40199 35-320)
T5 construct: Bought protein
T5 sequence: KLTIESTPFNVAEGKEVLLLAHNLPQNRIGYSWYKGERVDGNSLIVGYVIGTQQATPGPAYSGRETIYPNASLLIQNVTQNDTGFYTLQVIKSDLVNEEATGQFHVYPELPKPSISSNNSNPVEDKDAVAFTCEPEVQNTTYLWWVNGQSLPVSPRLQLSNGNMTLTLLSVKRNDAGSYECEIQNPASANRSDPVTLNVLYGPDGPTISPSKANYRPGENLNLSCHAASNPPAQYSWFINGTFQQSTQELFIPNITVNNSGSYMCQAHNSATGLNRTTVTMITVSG


Legend:
[1] = target: T1, CEACAM6 overexpressed on HEK293T cells; assay: flow cytometry on HEK293T cells overexpressing CEACAM6
[2] = target: T2, full length CEACAM1 overexpressed on …; assay: flow cytometry on HEK293T cells overexpressing CEACAM1
Excerpt: CEACAM1 overexpressing cells were then subcloned and sorted for purified populations of CEACAM1 positive cells, using standard techniques (FIG. 3). These cells were then used to generate binding curves by flow cytometry (FIG. 4).

[3] = target: T3, CEACAM5 overexpressed on HEK293T cells; assay: flow cytometry on HEK293T cells overexpressing CEACAM5
[4] = target: T4, recombinant CEACAM5 (R&D Systems …); assay: ELISA, plate-coated recombinant CEACAM5
Description: (§1) Plates were coated with 50 μl of 1 μg/ml of CEACAM1 (#2244-CM, R&D Systems) overnight at 4° C. The next day, in 16 h, plates were blocked with 200 μl 0.4% bovine serum albumin (BSA) (Sigma, A9647) in PBS for 1 hr at room temperature. Plates were washed once with 300 μl of 0.02% Tween-20 in PBS on a Biotek plate washer. 1/2 log dilutions of CEACAM mAbs starting from 10 μg/ml to 0.0001 ug/ml in 0.4% BSA, or PBS only, were plated for each antibody. 50 μl of each dilution were added to coated plates. Plates were incubated at room temp for approx 30 min. Plates were then washed 3 times with 300 μl of 0.02% Tween-20 in PBS using a Biotek plate washer. […] Plates were incubated at room temp for approximately 30 min. Plates were then washed 3 times with 300 ul of PBS/0.02% Tween-20 on a Biotek plate washer. 50 μl of 3,3′,5,5′-Tetramethylbenzidine (TMB, Sigma T0440) were added, allowed for color development, followed by adding 50 ul of 4N H₂SO₄. Plates were analyzed at 450 nm using EnVision Microplate Reader (PerkinElmer). Isotype control (CNT08939 antibody, specific to RSV virus, having the human IgG2 sigma backbone) was plated on last 3 plates at a concentration 10 μg/ml. Absorbance at 450 nm (FIG. 2) was analyzed using XY scatter plots and non-linear fit curves were generated after log transformation, and EC50 values were calculated, using GraphPad Prism (GraphPad Software, San Diego, Calif.). For several antibodies the EC50 could not be calculated using GraphPad Prism due to poor curve fit; in these cases the EC50 values were visually estimated at the midpoint of the available curve. EC50 values for binding to recombinant CEACAM1 are represented in Table 1.
(§2) 3.1 Binding to recombinant CEACAM5 and CEACAM6. Cross-screening for specificity of purified phage and hybridoma antibodies to recombinant CEACAM5 (R&D Systems #4128-CM) and CEACAM6 (R&D Systems #3934-CM) was performed using ELISA, according to the protocol described in Example 2. Binding curves for binding of mAbs to CEACAM5 are shown on FIG. 5a, and to CEACAM6 on FIG. 5b.

[5] = target: T5, recombinant CEACAM6 (R&D Systems …); assay: ELISA, plate-coated recombinant CEACAM6
Description: as §1, §2

binding result [1] | EC50 [2] | binding result [3] | EC50 [1] | EC50 [4] | EC50 [5] | Binder
no binding | 0.0275 µg/mL | no binding |  |  |  | CCMB35.004 (antibody, V domains shown, also called mAb 9) VH: EVQLLESGGGLVQPGESLRLSCAASGLTFSDYAMNWVRQAPGKGLYWVSSISGTGGSTYYADSLKGRFTISRDNSKNTLYLQMNSLRAEDTAVYYCAKDIAVGVTAYFDHWGQGTLVTVSS VL: SSELTQDPAVSVALGQTVRITCQGDSLRTYSASWYQQKPGQAPVLVIYGKNNRPSGIPDRFSGSSSGNTASLTITGAQAEDEADYYCNSRDSRGNLLVVFGGGTKLTVL
 |  |  | 0.0118 µg/mL | 4.32 µg/mL | 6.05 µg/mL | CCMB18.004 (antibody, V domains shown, also called mAb 6) VH: QVQLVQSGSELKKPGASVKVSCKASGYTLTDYGMNWVRQAPGQGLQWMGWINTNTGNPTYAQGFTGRFVFSLDTSVSTAYLQISSLKTEDTAVYYCARKAIWGWFDPWGQGTLVTVSS VL: not shown
no binding |  |  |  | 1.14 µg/mL |  | CCMB42.004 (antibody, V domains shown, also called mAb 10) VH: EVQLLESGGGLVQPGGSLRLSCAASGFTFNTYGMSWARQAPGKGLEWVSTISGSGDNTYYADSVKGRFTISRDNSKNTLYLQINSLRAEDTAVYYCAKGGLLWFGELPYPFDYWGQGTLVTVSS VL: QSALTQPASVSGSPGQSITISCTGTSSDVGGYNYVSWYQQHPGKAPKLMIYDVSNRPSGVSNRFSGSKSDNTASLTISGLQAEDEADYYCSSYISTSTLYVFGIGTKVTVL
 | 0.0353 µg/mL | no binding |  |  | 1240 µg/mL | CCMB61.004 (antibody, V domains shown, also called mAb 11) VH: not shown VL: SSELTQDPAVSVALGQTVRITCQGDSLRSYYVSWYQQKPGQAPTLVIYGKNNRPSGIPDRFSGSSSGNTPSLTITGAQAEDEADYYCNSRDSSNHLVVFGGRTKLTVL
 |  |  | 0.00515 µg/mL | 16.4 µg/mL | 5 µg/mL | CCMB03.004 (antibody, V domains shown, also called mAb 2) VH: QVQLVQSGSELRTPGASVKVSCKASGYTFTSYGLSWVRQAPGQGLEWMGWINTNTGNPTYAQGFTGRFVFSLDTSVSTAYLQISSLKAEDTAVYYCARKGIWGPFDYWGQGTLVTVSS VL: not shown
 |  |  | 0.0109 µg/mL | 6.46 µg/mL | 5.57 µg/mL | CCMB04.004 (antibody, V domains shown, also called mAb 3) VH: QVQLVQSGSELKKPGASVKVSCKASGYTFTNYGVNWVRQAPGQGLEWMGWINTNTGNPTYVQGFTGRFVFSLDTSVTTAYLHISSLKAEDTAVYFCARKGIWGPFDHWGQGTLVTVSS VL: not shown
no binding |  |  |  | 1690 µg/mL |  | CCMB66.004 (antibody, V domains shown, also called mAb 12) VH: EVQLVQSGAEVKKPGESLKISCKGSGYSFTSYWIGWVRQMPGKGLEWMGIIYPGDSDTRYSPSFQGQVTISADKSISTAYLQWSSLKASDTAMYYCARGYPAPTVNDLDYWGQGTLVTVSS VL: not shown
no binding | 0.00419 µg/mL | no binding |  |  |  | CCMB23.004 (antibody, V domains shown, also called mAb 8) VH: QLQLQESGPGLVKPSETLSLTCTVSADSISRTSYYWGWIRQPPGKGLEWIGTIYYSGSTYYNPSLKSRVTISVDTSRNHFSLTLNSVTAADTAVYYCARQIAVGAHRFDYWGQGTLVTVSS VL: DIQLTQSPSFLSASVGDRVTITCRASQGISSYLAWYQQKPGKAPKLLIYAASTLQSGVPSRFSGSGSGTEFTLTISSLQPEDFATYYCQQLNSYPWTFGQGTKVEIK
no binding |  |  |  | 50 µg/mL |  | CCMB02.004 (antibody, V domains shown, also called mAb 1) VH: EVQLLESGGGLVQPGGSLRLSCAASGFTFINYAMNWVRLTPGKGLEWVSVISGSGSGTYYADSVKGRFTVSRDNSKNTLYLQMNSLRVEDTAIYYCASPPPMVRGVIITIGNYWGQGALVTVSS VL: not shown
no binding |  |  |  | 9.77 µg/mL |  | CCMB07.004 (antibody, V domains shown, also called mAb 4) VH: EVQLLESGGGLVQPGGSLRLSCAASGFTFTNYAMNWVRLAPGKGLEWVSVISGSGSGTYYADSVKGRFTVSRDNSKNTLYLQMNSLRVEDTAIYYCASPPPMVRGVIITIGNYWGQGALVTVSS VL: EIVMTQSPATLSVSPGERATLSCRASQSVSVNLAWYQQKPGQAPRLLIYGASTRATSIPTRFSGSGSGTEFTLTISSLQSEDFAVYYCQQYNNWPFTFGPGTKVEIK
no binding |  |  |  | 4.27 µg/mL |  | CCMB20.004 (antibody, V domains shown, also called mAb 7) VH: EVQLLESGGGLVQPGESLRLSCAASGFTFNNYAMTWVRQAPGKGLDWVSSISGTSANTYYADAVKGRFTISRDNSMTTLYLQMNSLRAEDTAVYYCAKPILTLFGELPLDYWGQGTLVTVSS VL: EIVMTQSPATLSVSPGERATLSCRASQSVSSNLAWYQQKTGQAPRLLIYGASTRATAFPARFSGSGSGTEFTLTISSLQSEDFAVYYCQQYNNWPLTFGGGTKVEIK
 |  |  | 0.0158 µg/mL | 4.46 µg/mL | 5.13 µg/mL | CCMB09.004 (antibody, V domains shown, also called mAb 5) VH: QVQLQESGPGLVKPSQTLSLTCTVTGDSIRSGGHYWSWIRQHPGKGLEWIGNIYYSGSTHYNPSLKSRLTISVDTSKNQFSLKVSSVTAADTAVYYCARGRLLWFGEPQDFQHWGQGTLVTVSS VL: not shown
